# Molecular target: IL-12 receptor of human T cells (human) (UniProt P42701)
# Assay: cell-based or functional assay
# IL-12 receptor of human T cells (human), sequence (Q99665 24-862, chain 2 of 2, other chains not shown): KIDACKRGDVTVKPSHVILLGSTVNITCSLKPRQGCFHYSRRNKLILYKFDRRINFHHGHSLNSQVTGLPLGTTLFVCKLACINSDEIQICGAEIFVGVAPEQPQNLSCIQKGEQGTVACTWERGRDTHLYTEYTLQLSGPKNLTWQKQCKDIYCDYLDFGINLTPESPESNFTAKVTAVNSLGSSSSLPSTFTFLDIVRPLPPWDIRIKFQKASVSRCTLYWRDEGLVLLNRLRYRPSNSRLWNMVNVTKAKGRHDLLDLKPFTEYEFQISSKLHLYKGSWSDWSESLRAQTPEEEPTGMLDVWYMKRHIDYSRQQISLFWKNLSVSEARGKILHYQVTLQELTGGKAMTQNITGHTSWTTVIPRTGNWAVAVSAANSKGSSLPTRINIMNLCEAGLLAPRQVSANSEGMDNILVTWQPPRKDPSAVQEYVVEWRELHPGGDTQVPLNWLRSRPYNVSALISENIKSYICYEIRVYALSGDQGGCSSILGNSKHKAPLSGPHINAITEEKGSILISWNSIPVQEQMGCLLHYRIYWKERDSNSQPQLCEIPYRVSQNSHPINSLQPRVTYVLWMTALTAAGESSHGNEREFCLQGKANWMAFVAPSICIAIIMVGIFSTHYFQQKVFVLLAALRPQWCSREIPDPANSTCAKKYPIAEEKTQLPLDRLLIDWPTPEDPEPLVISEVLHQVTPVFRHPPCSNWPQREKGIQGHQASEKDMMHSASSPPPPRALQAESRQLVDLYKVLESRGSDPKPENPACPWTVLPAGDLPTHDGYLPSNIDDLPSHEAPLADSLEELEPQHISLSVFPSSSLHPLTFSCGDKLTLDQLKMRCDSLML
substance,measurement,value
recombinant human IL-12 (from UniProt P29459 23-219; P29460 23-328) (ligand),"half maximal effective concentration (EC50) of p-STAT4 (Tyr693) in activated human T cells, AlphaLISA",8.95 pM

# Reference: US20230295258A1
